The labels stand for the following.
B1: wild-type peptide TLISSLRPI (peptide)
peptide: TLISSLRPI
notes: Made by solid phase synthesis, purified by reverse phase HPLC, purity >90%
B2: mutant peptide TLISSLMPI (peptide)
peptide: TLISSLMPI
notes: Made by solid phase synthesis, purity >90%; also called peptide (a); tumor antigen peptide

For the assay, the target named is T1, HLA-A0201 on T2 cells (human).
T1 construct: MHC class I molecule on T2 cells; also called HLA-A0201 molecule; HLA-A2
Kind of assay: T2 cell HLA-A0201 assay, flow cytometry with FITC anti-HLA-A0201 mAb, peptide 100 µM.
Protocol: Cells were collected by centrifugation of the cell culture at 200 g for 5 minutes. […] The mean fluorescence intensity (MFI) was then detected and analyzed by flow cytometer (BD FACSJazz™) and its software. The fluorescence index (FI) was calculated by using the following formula:
Consider B1, for which the Average fluorescence intensity turned out to be 672 and the “FI (fluorescence index)” value turned out to be 1.99.

With TMISSLMPL [variant peptide TMISSLMPL], the Average fluorescence intensity was 764 and the “FI (fluorescence index)” value turned out to be 2.4.

For B2, the Average fluorescence intensity is 683 and the “FI (fluorescence index)” value was determined as 2.04.

As for TMISSLMPI [variant peptide TMISSLMPI], the Average fluorescence intensity came out at 701 and the “FI (fluorescence index)” value came to 2.12.

With TLISSLMPV [variant peptide TLISSLMPV], the Average fluorescence intensity was found to be 714 and the “FI (fluorescence index)” value worked out at 2.18.

On to TLISSLMPL [variant peptide TLISSLMPL], for which the Average fluorescence intensity stood at 692 and the “FI (fluorescence index)” value turned out to be 2.08.

In the case of TMISSLMPV [variant peptide TMISSLMPV], the Average fluorescence intensity amounted to 776 and the “FI (fluorescence index)” value worked out at 2.46.

Source of the values: US20200024316A1 (GENOIMMUNE THERAPEUTICS, published 2020).
